For data set [1] the following is noted: literature; cited from earlier work.
In another data set the test system is serum arginine. Briefly: Serum arginine in 4T1 xenograft nude mice (Biochrom 30). The format is in vivo. Particulars: BDL: Below Detection Level. Here is the method: (§1) For the aggressive 4T1 breast cancer cell xenograft model studies, 10 female nude mice (11-12 weeks of age) were used. They were kept in groups of five per cage and provided food and water ad libitum. The 4T1 cancer cells were harvested by trypsinization and washed twice with 1×PBS and resuspended in 1×PBS for inoculation. The cancer cells (1×10^6 cells of 4T1) were injected subcutaneously into the left flank of the mice. […] They were injected with either 500U (3.2 mg, 230 μL) N-ABD-rhArg (SEQ ID NO: 49) or 1×PBS once per week. Blood samples were collected from the saphenous vein. Tumor size and the body weight of mice were monitored regularly. The tumor volume was estimated by the following equation: […]
Importantly, 500U of the albumin-binding arginase N-ABD-rhArg (SEQ ID NO: 49) depleted arginine to a level below the detection limit of the Biochrom 30 Amino Acid Analyzer (3 μM) for at least 10 days in BALB/c mice (FIG. 10). Therefore, 500 U of N-ABD-rhArg (SEQ ID NO: 49) was administered via i.p. injection once per week to the 4T1 breast cancer xenograft nude mice for efficacy study.

In data set [2] the test system is 4T1 breast cancer xenograft. As to the kind of experiment: 4T1 breast cancer xenograft in nude mice. The class given is in vivo, female nude mice. Here is the method: as §1
The mice were sacrificed after 16 days of cancer cell inoculation (i.e. 13 days after starting of the experiment) because of necrosis of tumor in the PBS-injected control group. After being sacrificed, tumors were collected from the mice and the weight of the tumor was measured. Lungs were also collected and washed with 1×PBS. The lungs were fixed in Bouin's solution overnight and washed with 1×PBS after fixation. Lung metastatic nodules were counted.

Data set [3] deals with human serum albumin (HSA) (Homo sapiens, UniProt P02768). As to the kind of experiment: Binding to HSA on non-denaturing PAGE. Particulars: fixed HSA titrated at various molar ratios. Here is the method: When ABD is fused to rhArg or BCA, it is important for the fusion protein to retain both the albumin binding capacity and the enzymatic activity. […] The reaction mixtures were analyzed in their native condition on non-denaturing PAGE where the proteins were separated by size and conformation.
In FIG. 7, the mobility of each of HSA and N-ABD-rhArg (SEQ ID NO: 49) alone are shown in Lanes 2 and 3 of the non-denaturing PAGE, respectively (FIG. 7). A fixed amount of HSA (30 pmoles) was titrated against N-ABD-rhArg (SEQ ID NO: 49) at various molar ratios and the results are illustrated in Lanes 5-9. […] In FIG. 8, the mobility of each of HSA and BHA (SEQ ID NO: 75) alone are shown in Lanes 6 and 7 of the non-denaturing PAGE, respectively (FIG. 8). A fixed amount of HSA (60 pmoles) was titrated against BHA (SEQ ID NO: 75) at various molar ratios and the results are illustrated in Lanes 1-5.

The subject of data set [4] is 4T1 breast cancer allograft. Briefly: 4T1 breast cancer allograft study. The class given is in vivo, female nude mice. Here is the method: In another 4T1 breast cancer allograft study, female nude mice (5-6 weeks of age) were used. They were kept in groups of five per cage and provided food and water ad libitum. Cells of 4T1 breast cancer ([…]) were injected subcultuaneously into the right flank of the mice. […] There were one control group (n=8) and three experimental groups, including 500U PEGylated His-rhArg (SEQ ID NO: 101) (n=8), 500U N-ABD-rhArg (SEQ ID NO: 49) (n=6) and 250U N-ABD-rhArg (SEQ ID NO: 49) (n=8). Mice in the control group were injected with 1×PBS weekly. For the 500U ABD-rhArg group and the 250U ABD-rhArg group, mice were injected with 500U and 250U ABD-rhArg once a week, respectively; one group was injected with 500U PEG-rhArg once per week. The mice were sacrificed after 24 days of inoculation (i.e. 14 days after starting of experiment) because of necrosis of tumor in PBS control group. After sacrificing, the mice were dissected. Tumors were collected from the mice and measured their weight. Lungs were also collected and washed with 1×PBS. The lungs were fixed in Bouin's solution overnight and washed with 1×PBS after fixation. Lung metastatic nodules were counted.

The next data set deals with plasma arginine. As to the kind of experiment: Plasma arginine after single i.p. dose of N-ABD-rhArg (Biochrom 30). The class given is in vivo, BALB/c mice. How it is done:
FIG. 10 illustrates plasma arginine concentrations, measured using the Biochrom 30 Amino Acid Analyzer, of BALB/c mice after receiving intraperitoneal injection of a single dose of (A) 125U; (B) 250U; and (C) 500U of N-ABD-rhArg (SEQ ID NO: 49). N-ABD-rhArg (SEQ ID NO: 49) was injected at day 0.
Fifteen female BALB/c mice (10 weeks of age) were used in this study. They were kept in groups of five per cage. A single dose of N-ABD-rhArg (SEQ ID NO: 49) (500 U, 250 U, and 125 U, respectively) was administered to the mice via i.p. injection. Blood samples were collected from the saphenous vein using heparinized capillary tubes, and were centrifuged at 800×g to obtain plasma. Sixteen microliters of plasma sample was subjected to measurement of L-arginine concentration using the Biochrom 30 Amino Acid Analyzer. […] In comparing with BHA (SEQ ID NO: 75) (FIG. 9), N-ABD-rhArg (SEQ ID NO: 49) can deplete arginine to a very low level in the mice for exceptionally longer period, which highlights the importance of the requirement for rational design of the fusion protein.

A short description of data set [5]: Enzyme kinetics after metal ion substitution. The class given is biochemical. How it is done: Wild type arginase typically includes a Mn^2+ metal ion (D′Antonio & Christianson, 2011, Biochemistry, 50:8018-27). […] Purified N-ABD094-rhArg (SEQ ID NO: 50) in 20 mM Tris-HCl buffer (pH 7.4) was mixed with 20 mM of different divalent metal ions (Mn^2+, Ni^2+ or Co^2+), and was incubated at 52-55° C. for 15-60 min and then buffer exchanged with PBS buffer (pH 7.4).
Samples were subjected to enzyme activity and enzyme kinetic studies to determine the specific activity and catalytic efficiency (kcat/Km). Samples were applied to inductively coupled plasma atomic emission spectroscopy (ICP-OES, Agilent 700 Series ICP optical emission spectrometer) for quantitative analysis of metal content.

Data set [6] is described as follows: DIO mice treated with N-ABD094-rhArg-Co^2+. The format is in vivo, C57BL/6J male mice. Particulars: 25-100U i.p., within 5 weeks, from 55 g, HFD continued. From the text: Production of N-ABD094-rhArg-Co^2+ [SEQ ID NO: 50 (cobalt substituted)] is described in Example 32. C57BL/6J male mice with pre-existing diet-induced obesity (DIO) received i.p. injection of 25-100U N-ABD094-rhArg-Co^2+[SEQ ID NO: 50 (cobalt substituted)] for 5 weeks, while continuously being fed a HFD.

By Km is commonly meant the concentration of substrate that gives half-maximal velocity. For orientation: kcat means the number of substrate molecules converted per active site and unit of time at saturation.

B1: human arginase: unmodified human arginase (Georgiou et al.) (protein, UniProt P05089 1-322, looked up)
Arginase-1: MSAKSRTIGIIGAPFSKGQPRGGVEEGPTVLRKAGLLEKLKEQECDVKDYGDLPFADIPNDSPFQIVKNPRSVGKASEQLAGKVAEVKKNGRISLVLGGDHSLAIGSISGHARVHPDLGVIWVDAHTDINTPLTTTSGNLHGQPVSFLLKELKGKIPDVPGFSWVTPCISAKDIVYIGLRDVDPGEHYILKTLGIKYFSMTEVDRLGIGKVMEETLSYLLGRKKRPIHLSFDVDGLDPSFTPATGTPVVGGLTYREGLYITEEIYKTGLLSGLDIMEVNPSLGKTPEEVTRTVNTAVAITLACFGLAREGNHKPIDYLNPPK
For B1, the “half-life / clearance in circulation” value in data set [1] is listed as “a few minutes”.

B2: N-ABD-rhArg: albumin binding domain (ABD) fused N-terminally to recombinant human arginase I, SEQ ID NO: 49 (protein)
chain: MHHHHHHDEAVDANSLAEAKVLANRELDKYGVSDYYKNLINNAKTVEGVKALIDEILAALPSGSNNNNNNGSGGMSAKSRTIGIIGAPFSKGQPRGGVEEGPTVLRKAGLLEKLKEQECDVKDYGDLPFADIPNDSPFQIVKNPRSVGKASEQLAGKVAEVKKNGRISLVLGGDHSLAIGSISGHARVHPDLGVIWVDAHTDINTPLTTTSGNLHGQPVSFLLKELKGKIPDVPGFSWVTPCISAKDIVYIGLRDVDPGEHYILKTLGIKYFSMTEVDRLGIGKVMEETLSYLLGRKKRPIHLSFDVDGLDPSFTPATGTPVVGGLTYREGLYITEEIYKTGLLSGLDIMEVNPSLGKTPEEVTRTVNTAVAITLACFGLAREGNHKPIDYLNPPK
modifications: N-ABD-rhArg, Synthesized in the Lab
As for B2, the “Arginine Concentration (serum), individual mice 1-4” value in the data set with serum arginine (Day 6, 500 U once per week) is 0 (BDL) μM; in the data set on serum arginine (Day 13, 500 U once per week), 0 (BDL) μM. For the same molecule, in data set [2] (500U once per week), the “growth of 4T1 breast cancer xenograft” value is on record as “inhibit the growth”. For the same molecule, the “Number of metastatic nodules found in lungs” value in data set [2] (500 U once per week, n = 4 (PBS control: 3)) is on record as 0. For the same molecule, the “% of metastasis free animals” value in data set [2] (500 U once per week, n = 4 (PBS control: 50%)) worked out at 100%. Besides, in data set [2] (500U once per week, 12 days and 13 days after starting), the “estimated tumor volume vs control group” value was “significant difference”. In data set [3], the “binding to HSA (free HSA reduced in a proportional manner)” value was “specific binding”. Moreover, the “growth of 4T1 solid tumor” value is listed as “did not inhibit the growth” in data set [4] (250U once per week) and “inhibited the growth of the aggressive 4T1 solid tumor significantly” in data set [4] (500U once per week). Also, the “metastasis nodules from the lungs vs control group” value in data set [4] (500U once per week) is “very significantly reduced”. The “time serum arginine below detection limit (3 μM)” value with plasma arginine (single i.p. dose 125U) is “at least 3 days”; in the data set with plasma arginine (single i.p. dose 250U), “at least 7 days”.

B3: N-ABD094-rhArg-Co^2+: cobalt-substituted N-ABD094-rhArg enzyme (protein)
chain: MHHHHHHDEAVDANSLAEAKEAANAELDSYGVSDFYKRLIDKAKTVEGVEALKDAILAALPSGSNNNNNNGSGGMSAKSRTIGIIGAPFSKGQPRGGVEEGPTVLRKAGLLEKLKEQECDVKDYGDLPFADIPNDSPFQIVKNPRSVGKASEQLAGKVAEVKKNGRISLVLGGDHSLAIGSISGHARVHPDLGVIWVDAHTDINTPLTTTSGNLHGQPVSFLLKELKGKIPDVPGFSWVTPCISAKDIVYIGLRDVDPGEHYILKTLGIKYFSMTEVDRLGIGKVMEETLSYLLGRKKRPIHLSFDVDGLDPSFTPATGTPVVGGLTYREGLYITEEIYKTGLLSGLDIMEVNPSLGKTPEEVTRTVNTAVAITLACFGLAREGNHKPIDYLNPPK
modifications: cobalt substituted; N-ABD094-rhArg, Synthesized in the Lab
notes: cobalt-substituted N-ABD094-rhArg enzyme
As to B3, in data set [5], the Km is 270 to 350 µM and the kcat lay in the range of 250 to 316 s⁻¹. In data set [6], this molecule yielded a bodyweight after treatment of 30 g.

The record behind these values is patent US20200181597A1, “Composition and Application of Arginine-depleting Agents for Cancer, Obesity, Metabolic Disorders, and Related Complications and Comorbidities” (THE HONG KONG POLYTECHNIC UNIVERSITY, priority 2018, published 2020).
